Holding throughout (assay): steady-state primer extension, 6-FAM labelled primer, gel, Lineweaver-Burk
Format in all cases: biochemical, Mycolicibacterium smegmatis

Substrate in data set [1]: Nc1ncnc2c1ncn2[C@H]1C[C@H](O)[C@@H](COP(=O)(O)OP(=O)(O)OP(=O)(O)O)O1
As to conditions: template dT (correct pair T:A), 20 nM DNA T2P1, 1 nM enzyme, Mg2+, pH 8.0, 37°C (given for the primer extension assay), number in parentheses is standard error. An excerpt:
(§1) steady-state primer extension, 6-FAM labelled primer, gel, Lineweaver-Burk on MsDpo4

Substrate in data set [2]: Nc1nc2c(ncn2[C@H]2C[C@H](O)[C@@H](COP(=O)(O)OP(=O)(O)OP(=O)(O)O)O2)c(=O)[nH]1
The note with it: template dT (mismatch T:G, misincorporation), 20 nM DNA T2P1, 10 nM enzyme, Mg2+, pH 8.0, 37°C (given for the primer extension assay), number in parentheses is standard error.
From the text: as §1

Substrate in data set [3]: Cc1cn([C@H]2C[C@H](O)[C@@H](COP(=O)(O)OP(=O)(O)OP(=O)(O)O)O2)c(=O)[nH]c1=O
The note with it: template dG (mismatch G:T, misincorporation), 20 nM DNA T1P1, 10 nM enzyme, Mg2+, pH 8.0, 37°C (given for the primer extension assay), number in parentheses is standard error.
From the text: as §1

Substrate in data set [4]: Nc1ccn([C@H]2C[C@H](O)[C@@H](COP(=O)(O)OP(=O)(O)OP(=O)(O)O)O2)c(=O)n1
The note with it: template dG (correct pair G:C), 20 nM DNA T1P1, 1 nM enzyme, Mg2+, pH 8.0, 37°C (given for the primer extension assay), number in parentheses is standard error.
From the text: as §1

B1: MsDpo4 (Mycolicibacterium smegmatis MC2 155) (protein)
chain: MTKWVLHVDLDQFLASVELRRRPDLRGQPVIVGGSGDPSEPRKVVTCASYEAREFGVHAGMPLRAAARRCPDATFLPSDPAAYDEASEQVMGLLRDLGHPLEVWGWDEAYLGADLPDESDPVEVAERIRTVVAAETGLSCSVGISDNKQRAKVATGFAKPAGIYVLTEANWMTVMGDRPPDALWGVGPKTTKKLAAMGITTVADLAVTDPSVLTTAFGPSTGLWLLLLAKGGGDTEVSSEPWVPRSRSHVVTFPQDLTERREMDSAVRDLALQTLAEIVEQGRIVTRVAVTVRTSTFYTRTKIRKLPAPSTDAGQIVDTALAVLDQFELDRPVRLLGVRLELAMDDVPRPAVTAGT
notes: msmeg_1014 in pGEX6P1, expressed as GST-MsDpo4 fusion in bacteria; single-chain Y-family polymerase
On to B1, for which the Km in data set [1] is reported as 5.5 (1.54) μM; in data set [2], 166.5 (39.01) μM; in data set [3], 165.5 (39.70) μM; in data set [4], 4.3 (0.69) μM.

(Values after publication PMC3317225, “MsDpo4—a DinB Homolog from Mycobacterium smegmatis—Is an Error-Prone DNA Polymerase That Can Promote G:T and T:G Mismatches” (Journal of Nucleic Acids, 2012).)
